Results reported in paper PMC6086839, “Elongator mutation in mice induces neurodegeneration and ataxia-like behavior” (Nature Communications, 2018).

T1: yeast Elp4 residues 66-426 (yElp4_(66-426)) (S. cerevisiae, UniProt Q02884 66-426)
T1 construct: source: purified complex
T1 sequence (looked up): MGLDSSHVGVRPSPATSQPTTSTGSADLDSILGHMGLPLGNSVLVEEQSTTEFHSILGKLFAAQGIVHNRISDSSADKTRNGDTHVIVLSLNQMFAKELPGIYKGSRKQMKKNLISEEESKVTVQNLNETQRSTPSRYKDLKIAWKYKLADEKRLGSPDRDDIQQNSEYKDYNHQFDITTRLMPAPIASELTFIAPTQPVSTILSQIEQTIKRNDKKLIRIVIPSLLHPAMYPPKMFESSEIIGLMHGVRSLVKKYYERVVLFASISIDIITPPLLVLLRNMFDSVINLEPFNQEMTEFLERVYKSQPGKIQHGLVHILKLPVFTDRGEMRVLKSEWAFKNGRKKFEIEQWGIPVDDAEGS

B1: yeast Elongator complex subunit 6 (yElp6) (natural protein, S. cerevisiae)
chain: MGSVQRQDLVLFSDQSVLPAHFFQDSNSHNLFFITHQSCTQPLWMINALVETHVLGSPSSLNESSSSMLPSSTRSHAVLASFIHEQNYFTNSLNKLKIPSNNYNVLDFLSDFIVNNIHNKPRDKILSDVLAKFSAAIQNNPTDTIVIIEQPELLLSLVSGLTCSELNNKFITPLLRQCKVLIIVSNSDIFNIDEYDASVHSSNLQNFYKSSFIKSMINLNLNPLKTGFAKDVTGSLHVCRGGAPIATSNTSLHVVENEYLYLNEKESTKLFYR
notes: Elp6, S. cerevisiae, Q04868; printed without limits (yElp456); source: purified Elp456 complex from yeast subunits

Columns and labels:
[1] = target: T1, yeast Elp4 residues 66-426 …; assay: co-purification (NiNTA affinity, then SEC); subunits co-expressed in E. coli; truncated complexes purified as complexes and then used for Thermofluor; conditions: both partners purified
[2] = target: B1; assay: as above; conditions: both partners purified

| binding result [1] | binding result [2] | Binder |
| --- | --- | --- |
| binds | binds | yeast Elp5 residues 1-270 (yElp5_(1-270)) (domain or fragment, S. cerevisiae, UniProt P38874 1-270, looked up, Elp5, yeast, residues 1-270; source: purified complex) MASSSHNPVILLKRILSLTESSPFILCLDSIAQTSYKLIQEFVHQSKSKGNEYPIVYISFETVNKPSYCTQFIDATQMDFVHLVKQIISYLPAATATQAKKHMVIIDSLNYISTEYITRFLSEIASPHCTMVATYHKDIKDENRTVIPDWNNNYPDKLTLLQFMATTIVDIDVVLTGTLDTEEVSELLNEFRIPRGLNNDIFQLRLVNKRKSGRSLEYDFIVNSNTHEYELLSTTKQEEESSSNGLETPEMLQGLTTFNLGTSNKQKLAK |
| binds |  | B1 |
